Several values for one entry are separate records, joined by “and”; a condition that tells them apart may be missing. Equal entries are not always repeated.

We go through one substance from US20070180545A1.

The target in experiment [1] is TAT-031 as present on the surface of human tumor cell lines (PC3, H1299, HL-60) (human) (UniProt P08195). The experiment in a line: flow cytometry on PC-3 human tumor cells. In general terms: Flow cytometry measures light scatter and fluorescence of single cells or particles in a stream.
Experiment [2] has the same target. The experiment in a line: flow cytometry on H1299 human tumor cells.
Experiment [3] shares this target. The experiment in a line: flow cytometry on HL-60 human tumor cells.
Experiment [4] has as its target TAT-031 (full-length clone expressed from phCMV1-TAT-031 on stably transfected cells) (human) (UniProt P08195). The experiment in a line: flow cytometry on BaF3 cells stably transfected with TAT-031 (SLC3A2).

As to “Mouse monoclonal antibody 44D7 (Abcam, Cat#AB23495)”, the relative geometric mean fluorescence (relative geometric mean fluorescence) in experiment [1] was 153 and 98.6 and 86; in experiment [2], 527 and 419 and 389; in experiment [3], 118 and 257 and 205; in experiment [4], 165 and 102.
